# Data taken from the Immune Epitope Database (IEDB).
# Assays:
# [1] = molecular target: HLA-A*24:02; test: IEDB peptide-MHC binding, purified MHC/competitive/radioactivity; filed as Kd, often an IC50 or EC50 that approximates it; ≥ and ≤ were set here for values at or beyond the usual limits of such assays
# [2] = molecular target: HLA-A*29:02; test: as above
# [3] = molecular target: HLA-A*26:01; test: as above
# [4] = molecular target: HLA-A*23:01; test: as above
# [5] = molecular target: HLA-A*01:01; test: as above
# [6] = molecular target: HLA-A*30:02; test: as above
# [7] = molecular target: HLA-A*31:01; test: as above; details: source organism: Vaccinia virus WR
# [8] = molecular target: HLA-A*33:01; test: as above; details: source organism: Vaccinia virus WR
# [9] = molecular target: HLA-A*11:01; test: as above; details: source organism: Vaccinia virus WR
# [10] = molecular target: HLA-A*68:01; test: as above; details: source organism: Vaccinia virus WR
# [11] = molecular target: HLA-A*03:01; test: as above; details: source organism: Vaccinia virus WR
# [12] = molecular target: HLA-B*58:01; test: IEDB peptide-MHC binding, purified MHC/direct/fluorescence; filed as Kd, often an IC50 or EC50 that approximates it; ≥ and ≤ were set here for values at or beyond the usual limits of such assays
# [13] = molecular target: HLA-B*15:01; test: as above; details: source organism: Salmonella enterica subsp. enterica serovar Typhimurium
# [14] = source organism: SARS coronavirus Tor2
# [15] = source organism: Mammarenavirus brazilense
# [16] = source organism: Mammarenavirus guanaritoense
# [17] = source organism: Triticum aestivum
# [18] = source organism: Lassa virus Josiah
# [19] = source organism: Lassa virus GA391
# [20] = source organism: Mammarenavirus juninense
# [21] = source organism: Mammarenavirus whitewaterense
# [22] = source organism: Mammarenavirus machupoense
Sequence,"Kd [1, 14]","Kd [2, 14]","Kd [3, 14]","Kd [4, 14]","Kd [5, 14]","Kd [6, 14]",other results
LSNFGAPSY,≥ 77600 nM,13.9 nM,4580 nM,≥ 77800 nM,81.2 nM,1.77 nM,–
FSSLPSYAAY,≥ 70300 nM,8.85 nM,261 nM,≥ 70000 nM,2.04 nM,2.77 nM,–
SFYCDPKRYF,–,–,–,–,–,–,"Kd [1, 15]: 443 nM; Kd [2, 15]: 29.4 nM; Kd [4, 15]: 84.6 nM"
ISEPTIHLV,–,–,–,–,–,–,"Kd [1, 16]: ≥ 77500 nM; Kd [2, 16]: ≥ 78900 nM; Kd [3, 16]: ≥ 77900 nM; Kd [4, 16]: 15400 nM; Kd [5, 16]: 626 nM; Kd [6, 16]: 4890 nM"
QYSQPQQPI,–,–,–,–,–,–,"Kd [1, 17]: 2620 nM; Kd [2, 17]: 407 nM; Kd [3, 17]: ≥ 77900 nM; Kd [4, 17]: 16100 nM; Kd [5, 17]: ≥ 56400 nM; Kd [6, 17]: 93.3 nM"
CTPPALNCY,≥ 77600 nM,1300 nM,≥ 43600 nM,≥ 32400 nM,≥ 69400 nM,4790 nM,–
GYCLTRWMLI,–,–,–,–,–,–,"Kd [1, 18]: 1100 nM; Kd [2, 18]: 12200 nM; Kd [4, 18]: 242 nM"
DMFLTSVINR,–,–,–,–,–,–,Kd ([2]; source organism: Vaccinia virus WR): ≥ 42900 nM; Kd [7]: 6.58 nM; Kd [8]: 2.3 nM; Kd [9]: 2420 nM; Kd [10]: 10.2 nM; Kd [11]: 965 nM
RSTYRLDGW,–,–,–,–,–,–,Kd ([12]; source organism: Mycobacterium tuberculosis): 45.3 nM
VLCSSSPTI,–,–,–,–,–,–,"Kd [1, 16]: 1670 nM; Kd [2, 16]: ≥ 30700 nM; Kd [4, 16]: 457 nM"
VSVKMFDAY,10300 nM,76.6 nM,11500 nM,10500 nM,102 nM,639 nM,–
ELSPRWYFYY,9440 nM,8.01 nM,4.04 nM,8810 nM,91.4 nM,60.1 nM,–
VVAIDYRHY,≥ 77600 nM,64.7 nM,≥ 22100 nM,≥ 77800 nM,≥ 52600 nM,11.7 nM,–
LTQDLFLPFY,10500 nM,53.5 nM,481 nM,18000 nM,8.38 nM,2.26 nM,–
AYVNQAHHI,–,–,–,–,–,–,"Kd [1, 15]: 66.2 nM; Kd [2, 15]: ≥ 73300 nM; Kd [4, 15]: 47.6 nM"
QFEEIRNLAL,–,–,–,–,–,–,"Kd [1, 17]: 6850 nM; Kd [2, 17]: 3880 nM; Kd [3, 17]: ≥ 69700 nM; Kd [4, 17]: ≥ 21700 nM; Kd [5, 17]: ≥ 70400 nM; Kd [6, 17]: 7390 nM"
KDFKCFNLI,–,–,–,–,–,–,"Kd [1, 19]: 792 nM; Kd [2, 19]: ≥ 78900 nM; Kd [3, 19]: ≥ 77900 nM; Kd [4, 19]: 395 nM; Kd [5, 19]: 1180 nM; Kd [6, 19]: ≥ 33600 nM"
EIEPKLDGYY,≥ 70300 nM,7390 nM,163 nM,≥ 70000 nM,55.1 nM,534 nM,–
FMNAVGHDW,–,–,–,–,–,–,"Kd [12, 20]: 71 nM"
TKHPSLNII,–,–,–,–,–,–,"Kd [1, 21]: ≥ 52100 nM; Kd [2, 21]: ≥ 78900 nM; Kd [3, 21]: ≥ 77900 nM; Kd [4, 21]: ≥ 53100 nM; Kd [5, 21]: ≥ 47100 nM; Kd [6, 21]: ≥ 76900 nM"
HSVGFDYVY,≥ 77600 nM,157 nM,586 nM,≥ 77800 nM,14900 nM,11.9 nM,–
YQRPFGGQS,–,–,–,–,–,–,Kd [13]: 3710 nM
LFWAVKPKI,–,–,–,–,–,–,"Kd [1, 15]: 2770 nM; Kd [2, 15]: 9350 nM; Kd [4, 15]: 2120 nM"
CGDPSSFEY,–,–,–,–,–,–,"Kd [1, 22]: ≥ 64100 nM; Kd [2, 22]: 834 nM; Kd [3, 22]: ≥ 77900 nM; Kd [4, 22]: ≥ 77700 nM; Kd [5, 22]: 39.4 nM; Kd [6, 22]: 421 nM"
NMVYMPASW,4020 nM,≥ 25100 nM,≥ 77900 nM,706 nM,≥ 78100 nM,≥ 96800 nM,–
YTGNYQCGHY,≥ 70300 nM,22.5 nM,128 nM,≥ 70000 nM,3.38 nM,1.15 nM,–
SGKDTPGGY,–,–,–,–,–,–,"Kd [1, 20]: ≥ 77500 nM; Kd [2, 20]: ≥ 69700 nM; Kd [3, 20]: ≥ 77900 nM; Kd [4, 20]: ≥ 77700 nM; Kd [5, 20]: 13600 nM; Kd [6, 20]: 2.85 nM"
QYGSFCTQL,≥ 107000 nM,≥ 78900 nM,≥ 77900 nM,≥ 75400 nM,≥ 78100 nM,≥ 93800 nM,–
LTKGTLEPEY,≥ 70300 nM,2050 nM,1990 nM,≥ 70000 nM,3200 nM,536 nM,–
ATEETFKLSY,≥ 70300 nM,224 nM,11700 nM,≥ 52500 nM,54.4 nM,387 nM,–
